Results published in the DeepSol protein solubility set.

Test: soluble on expression in E. coli; label from the status in PepcDB or PDB records

| Sequence | soluble on expression in E. coli |
| --- | --- |
| MYGTEQIISGTIIAGPEILPIEGYICVKNGIITEIGEERTNSKNIIAPCFVNAHTHLGDSVCKDPVLGKTSGFRVQRDLDSLVKPPDGLKHRILRETPYKTLVGHIKRSLLDMIDTGTCAFADFREGGFLGVAALNKALEGLELRSLIFGRPAEPDLPLQVVLSEVRRILLRSDGLGMSGANDLDMNLLQEITACTRERKKLFAIHAGEKNRSDIEKALSLEPDLLIHLTHAGKKDLDEIAQAKIPVVVCPRSNFVTGAGMAPIAEMLEAGIRVAAGTDNVMLNSVNMFAEMEFMSKIFSIDDRQVFKICTLNGSFVMGPDSMCSIEKGNKANLMILNGDSNNLAGIQDPVGGITKRARPDDILAVLHS | not soluble |
| MAHHHHHHMRRVERSSRGEGEDTLATGEANVRTDTTVDVLRRASRHAQGAIETSWMTTRRLQVQGEQLEEIDRALDKMEHDLGVGDDALRRMTWTGRVKRWFTSRRKQPSDGVESSTSSSVPSSSLPIKPQGLREKNQQREGTRGSKRDDVIGCGSSTSHIAMEEEKLLDALLGDVHAMREQATLQGAMLTEHNRRLDVIATKTDAVHNHVNRTKQKVEKML | soluble |
| MIYEIGGHEVSIVRATPGLAKSYYDLLMELYEDPNSYILVNYSKDPPQLESIVERSKNWNVHPHYMHFALYKDKVVGFAGSLLGPDYGPEVQPHIAEIYYGVSKGWRKTGLIYALLYTALSDINAKIVKATAYVENLPSINVLLKIGLRIIAVLEENDFHYMSGKMHDDYLFRGFRSDCLNRLPGLLEKHGISVIR | not soluble |
| SIGLFKVKEKQREQAQNATRGGASVKKQSAGELRLHKDISELNLPSSCSISFPNGKDDLMNFEVSIKPDDGYYHNGTFVSHSKSLLCIHMKLQKLNAKPRFIIPISIWKETFA | soluble |
| MGSDKIHHHHHHMTSIVFNGSYITKKNTGVGVVSKDLLYSLSANKITTLIPKDLDIKGDIYIPNNLSPGTGLKSHFRRLYWLQNSVPKLMNNLNAEYFLSPLLEAPLFSNIKSIVLAHDLIPIRYPSVSFLTLYYLIYIPLILKQSKLILCNSVSTANDLHRFYKVPMHKLFPIKLGFNNKKYYPIKKIRKKFFLIIGRHNPHKNLRRVIKAFAYSKINDYKLIFVGPFDKRHTPSLLKLIDKHNIRHLCVWKGWIDDDEKLSLLNECHALIIASLWEGFGLPALEAMACGTPVIASDRGALREVMGNYGYFINPFNIQSIACAMNAVINDKKCFENALQEGPSRAESFNWLDTARTIEKIIQEID | not soluble |
| MSLALITLRQRNNKVEVRVFDTGIGIDADKQKAIFTDFYRIQDSDEAGVGLGLGVVRRLTEQMHATIDVSSVKRKGSCFILNMRIGSPVTESNVTFNKVKQTLSGLNVLCVDDKNENLDALETLLTRWEVNVVMANTYESALTLLASNKHPSPDVLLIDYQLDKDQDGLSLIKDIKAQVGKHIPSAIVTALQDQELKETCLSQGIQFLNKPLKPAKLRALLQSLAKQKSEGHHHHHH | not soluble |
| MPTYKLTYFNARGYAEAARILFHLADVPFEDFRMTHGDGTWEKLKDGAPFGQVPYLTVDGFDIPQSAAIIRYLANKFGYAGKTPEEQVWADAIVDQFKDFMGSFRERIMAHFAGKSQEEIAKITSEVVIPARDSYFKILNGLLEKSKSGFLVGDSITFADIVISENITTLEKNQLFVASEQPNLAALREKVYAIPAIRKWVEARPDTQY | not soluble |
| MDGEKSGNRELYTKRVYEYDQVINQVLKHEENILSLIKKDTFGAAYKRLVLADEMIYLATLYLAKFRLSVALLGGKNENILNEARKTLYKPIIYLEEIVTDLIDAPFSEYEEGVDRISKITEKQRYYLIRKLGLVINLVIDAYGENTKWRWSFIDIEARFAVVAKNIMDLKEISQTGLNPHAEDYDTVIYHLRLVKKLFTKAADKYREKYEIVTNNISDFRTAILFLEGLRRVHMVLNEHREVEEIKRKIEIWKDKMEKDLKQKDKPKK | not soluble |
| MWPPNAENNHCNYSYHEHAELNPHDHYHHHHYPHSSVHHTECYQTLSCPSDLPVETSYYNSVPPSYQDLGQTDLSPQFWCAEVDCVHERCSTKEIPHEQSKIFEEISKECDHIMNSAGDCEKCQVEHENGAQEAIPINDLVDIVMQTVDNLKKEGSSNDETKLLSRKRQQNKVAAARYRDKQKAKWQDLLDQLEAEEDRNQRLKLQAGHLEKEVAEMRQAFLAKLAKK | not soluble |
| MRVFKTILLVVLMTLSQAMVAQTSPIPMLERAANQIISILKENKARLKSNPEIIYKAVEENLLPNVDVAGMSRSVLGRQAWSKATEAERVEFSKAFTRLVIRTYSSPLAQYSDETVQFLPLRGSLNSRFIRVNSVIVRSAGQNIPLSYSLVSKNGKWKIYDISVEGVSLLQSFRSQFAQALQHSSISQVIKEMQQKQIKKASLEHHHHHH | not soluble |
| MGNYLLRKLSCLGENQKKPKKGNPDEERKRQEMTTFERKLQDQDKKSQEVSSTSNQENENGSGSEEVCYTVINHIPHQRSSLSSNDDGYENIDSLTRKVRQFRERSETEYALLRTSVSRPCSCTHEHDYEVVFPH | soluble |
| MGSDKIHHHHHHMTVRQIIQLAGTLDIPGLPQLDVTQDEISIANLTPLKLWAATAGWGASADDLGFEDRVTGNKIPLNGSATSSRLVNAFDGSQALSQGTAGAVLKDDSFSTAGSFTIAMNLCAINDELTCAPASSSVLPGSGQSYWFLASSAGKFRIGTTSLSTQFADYLGPLLSRTAWLRLILKYDRAVGTMTLYVNGVQQAKLTNDALKTLSLAPGLVMGGLVTTTATPTSPPCLMRSPMGFNSALSDSELALVDRYLSKTLY | not soluble |
| MCAVLRQPKCVKLRALHSACKFGVAARSCQELLRKGCVRFQLPMPGSRLCLYEDGTEVTDDCFPGLPNDAELLLLTAGETWHGYVSDITRFLSVFNEPHAGVIQAARQQLSDEQAPLRQKLLADLLHHVSQNITAETREQDPSWFEGLESRFRNKSGYLRYSCESRIRGYLREVSAYTSMVDEAAQEEYLRVLGSMCQKLKSVQYNGSYFDRGAEASSRLCTPEGWFSCQGPFDLESCLSKHSINPYGNRESRILFSTWNLDHIIEKKRTVVPTLAEAIQDGREVNWEYFYSLLFTAENLKLVHIACHKKTTHKLECDRSRIYRPQTGS | soluble |
| GSPEKILAQIIQEHREGLDWQEAATRASLSLEETRKLLQSMAAAGQVTLLRVENDLYAISTERYQAWWQAVTRALEEFHSRYPLRPGLAREELRSRYFSRLPARVYQALLEEWSREGRLQLAANTVALAGFTPSFSETQKKLLKDLEDKYRVSRWQPPWVKEVAGSFNLDPSELEELLHYLVREGVLVKINDEFYWHRQALGEAREVIKNLASTGPFGLAEARDALGSSRKYVLPLLEYLDQVKFTRRVGDKRVVVGN | soluble |
| MQSVTPTSQYLKALNEGSHQPDDVQKEAVSRLEIIYQELINSRPPAPRTSGLMARVGKLWGKREDTKHTPVRGLYMWGGVGRGKTWLMDLFYQSLPGERKQRLHFHRFMLRVHEELTALQGQTDPLEIIADRFKAETDVLCFDEFFVSDITDAMLLGGLMKALFTRGITLVATSNIPPDELYRNGLQRARFLPAIDAIKQHCDVMNVDAGVDYRLRTLTQAHLWLSPLNDETRAQMDKLWLALAGVKRENSPTLEINHRPLATMGVENQTLAVSFTTLCVDARSQHDYIALSRLFHTVMLFDVPVMTRLMESEARRFIALVDEFYERHVKLVVSAEVPLYEIYQGERLKFEFQRCLSRLQEMQSEEYLKLEHHHHHH | not soluble |
| MTKTKFEKVLLIVNPKAGQGDLHTNLTKIVPPLAAAFPDLHILHTKEQGDATKYCQEFASKVDLIIVFGGDGTVFECTNGLAPLEIRPTLAIIPGGTCNDFSRTLGVPQNIAEAAKLITKEHVKPVDVAKANGQHFLNFWGIGLVSEVSNNIDAEEKAKLGKIGYYLSTIRTVKNAETFPVKITYDGQVYEDEAVLVMVGNGEYLGGIPSFIPNVKCDDGTLDIFVVKSTGIQAFKDYIGKKLFEDSNENDIFHVKAKSIHIETEEEKEVDTDGESSLHTPCQIELLQGHFTMIYNPAVV | soluble |
| MSLTVNISYLTDMDGVLIKEGEIIPGADRFLQSLTDNNVEFMVLTNNSIFTPRDLSARLKTSGLEIPPERIWTSATATAHFLKSQVKEGTAYVVGESGLTTALHTAGWILTDANPEFVVLGETRTYSFEAITTAINLILGGARFICTNPDVTGPSPSGILPATGSVAALITAATGAEPYYIGKPNPVMMRSALNTIGAHSEHTVMIGDRMDTDVKSGLEAGLSTVLVRSGISDDAEIRRYPFRPTHVINSIADLADEGHHHHHH | soluble |
| MGSDKIHHHHHHMTPLPSFRLSWPSALQRLCHAPAGKHMPAGAYQVHFPRLELVLSNRYHYSHEGCENASLSAQEALFIPAEHWTLPNWCANGEVLHILFDYARIGFSLVRSGPQGVISTHKESMVLAQRGSLNGMLDVLAGLCRDGADPEVLRLQGQALLALLQSLYDEARDSQWQQGGNLFRAICLYISEHLYAPLTREDVALRFSISATHLSRLFRQHLGLGFCEFLSHARLDLAKALLRQGQLPLSRVAARCGYADVNYFHRVFKQRFAMTPCAYRREFA | not soluble |
| MAEQRSNIMRLPPSGYRLHRFPPLAQPVAVDEEFGLDNQGWQESQVDIQQQLEAGFQQGLQQGHEEGLRQGIEQGKQQGLLDGQKEGFQKGFVSGEQAGKQGFLEAAKPVNDLFQALSRWQSEKEQQQRHMICELVQKVAQQVIRAELTLMPQQILALVDETLSAMPGKAETVTVHLNPQDLERITHINADLPKSWKLVANNELPIGGCQLVTDDAEADASCDSRLEACMDNVKQHLLDEVSIPQVESENELEHHHHHH | soluble |
| ALSGECADEIFGGYPWFMRKEMIYANTFPWSRFVNERISLLSDDLKSINLQEYVDARYKENLNNVPVSDEDSPYAKRMRELFYLNIKWFMITLLTRKDRMSMANSLEVRVPFADYRLVEYAFNIPPEIKFLNGREKGILRKAFEGVLPQDVIERKKSPYPKTFDPRYTALVQKWLKKVVEDKTSPILDIIDLKTVNELIETGGSSYKTPWFGQLMKGPQLIAYLLQVNFWLKEY | not soluble |
| MAHHHHHHVGTGSNDDDDKSPDPTQDVREPPALKYGIVLDAGSSHTSMFVYKWPADKENDTGIVGQHSSCDVQGGGISSYANDPSKAGQSLVRCLEQALRDVPRDRHASTPLYLGATAGMRLLNLTSPEATARVLEAVTQTLTQYPFDFRGARILSGQDEGVFGWVTANYLLENFIKYGWVGRWIRPRKGTLGAMDLGGASTQITFETTSPSEDPGNEVHLRLYGQHYRVYTHSFLCYGRDQILLRLLASALQIHRFHPCWPKGYSTQVLLQEVYQSPCTMGQRPRAFNGSAIVSLSGTSNATLCRDLVSRLFNISSCPFSQCSFNGVFQPPVAGNFIAFSAFYYTVDFLTTVMGLPVGTLKQLEEATEITCNQTWTELQARVPGQKTRLADYCAVAMFIHQLLSRGYHFDERSFREVVFQKKAADTAVGWALGYMLNLTNLIPADLPGLRKGTHF | soluble |
| MLNEKAIQDVDLYFQNIHGPEGRLASNETFDIVPGLSKDGAVQYQTYQFNEAPKHLQKQVKAGRILMERFVAVASAAVNKKAPSNKEKYHYDIWKEVSNQLIPAFFTDPIKGEQNLNTTVKGVEVAKSVIQFAGNVIAGNVTGFATFLQNFGNGLSAEMNKTQANYNYLYAYSTHDLFQDTSGNVFYKPRFLIYGTHFKQEQKKIATSCASYQEVNLEFGVDTVGGTFRIEEYFSNETFKKKVDNFLDKYEGKAIDDADSYFDDIFNGVKPNKNYVYHHHHHH | soluble |
| NTFYEITLEDESVLLDEVVAIGYGTQSKATVTSGVVSVKKAELMSSVSASPLNNLQGKVAGLDIRQTTGQPGAQPVVLIRGGSTDPANDSPLFVIDGVVRSNMNGLNQEDIESMEVLKDAASAAIYGAKAANGIILITTKQGSSKD | not soluble |
| MATAHYHGSCQCGSVSFEVDADLDHTVICNCSRCKRLGSTLAFAPREKFTLLSGEDKLSEYLFNKHKIHHFFCSTCGIESFAYADGPDGTPMVAVNANCLDGVDPRALKSQAFDGAA | not soluble |
